Experimental data: doi:10.1101/589119

Target: core Cascade subunits (crRNA, Cas11, Cas7, Cas5, Cas6e) (E. coli K12) (UniProt Q46899)
Experiment: single-particle tracking PALM

UniProt Q46899, sequence (Q46899 whole entry, looked up): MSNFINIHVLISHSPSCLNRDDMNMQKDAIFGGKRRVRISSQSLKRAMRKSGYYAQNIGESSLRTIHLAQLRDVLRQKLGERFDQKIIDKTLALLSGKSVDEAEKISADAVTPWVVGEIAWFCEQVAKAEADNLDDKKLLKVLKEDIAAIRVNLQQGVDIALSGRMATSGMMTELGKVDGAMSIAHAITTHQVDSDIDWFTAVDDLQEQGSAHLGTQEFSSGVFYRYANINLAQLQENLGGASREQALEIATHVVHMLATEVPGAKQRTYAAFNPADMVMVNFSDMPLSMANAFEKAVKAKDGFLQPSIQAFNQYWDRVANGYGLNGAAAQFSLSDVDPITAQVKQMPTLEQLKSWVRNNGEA

fraction of Cas8e in Cascade complexes: 60%
Substance: PAmCherry2-Cas8e (Cascade subunit Cas8e with a photoactivatable fluorescent protein fused to its N-terminus) (natural protein)
